Experiment [1] addresses T1, human ROR1 expressed on CHO-K1 cells (human, UniProt Q01973 30-937).
T1 construct: whole, on cells; also called CHO-K1-ROR1
Nature of the experiment: flow cytometry on CHO-K1-ROR1 cells, PE anti-human IgG-Fc. On the procedure: CHO-K1 cell line was transduced with lentivector carrying human ROR1. CHO-K1-ROR1 cells were resuspended in FACS buffer and Fc receptors were blocked prior to incubation with purified ROR1 mAbs. 5×10⁵ cells in 100 μL FACS buffer were aliquoted to separate tubes and the purified mAb was added. Antibody concentration is from about 30 μg/mL to about 0.000508 μg/mL. Cells were incubated at 4 degrees for 1 hour, then washed twice with excess FACS buffer. Cells were resuspended in 100 μL FACS buffer and 0.5 μg of anti-human IgG-Fc (PE) secondary antibody (ab98596) was added to samples, incubated for 30 minutes and washed twice with excess FACS buffer.
In general terms: In flow cytometry, cells or beads pass a laser one at a time.

For experiment [2], the target named is T2, Human ROR1-ECD (human, UniProt Q01973 30-406).
T2 construct: extracellular domain; Analyte in the Fortebio Octet assay; also called ROR1-derived extracellular domain fragment
Description: BLI (Fortebio Octet RED96), mAb on AHC biosensor, human ROR1-ECD as analyte. As to the method: Human ROR1-ECD was diluted in KB buffer (0.1% BSA, 0.05% Tween 20, 1×PBS, pH 7.4) to various concentrations (from about 500 nM to about 62.5 nM), and the mAb was also diluted in KB buffer to 10 μg/mL. The mAb was loading to anti-hIgG Fc Capture (AHC) Biosensors (PALL, Fortebio), and the diluted Human ROR1-ECD was associated with Mab, then dissociated in KB buffer. Association (k-on) and dissociation (k-off) rate constants were calculated based on a 1:1 Langmuir binding model using Fortebio Date Analysis 7.1 software (PALL, Fortebio).
On the technique in general: In BLI a coated tip is dipped into the sample, and binding shifts an interference pattern.

Positions count from the first letter of the chain named.

T2 sequence (Q01973 30-406): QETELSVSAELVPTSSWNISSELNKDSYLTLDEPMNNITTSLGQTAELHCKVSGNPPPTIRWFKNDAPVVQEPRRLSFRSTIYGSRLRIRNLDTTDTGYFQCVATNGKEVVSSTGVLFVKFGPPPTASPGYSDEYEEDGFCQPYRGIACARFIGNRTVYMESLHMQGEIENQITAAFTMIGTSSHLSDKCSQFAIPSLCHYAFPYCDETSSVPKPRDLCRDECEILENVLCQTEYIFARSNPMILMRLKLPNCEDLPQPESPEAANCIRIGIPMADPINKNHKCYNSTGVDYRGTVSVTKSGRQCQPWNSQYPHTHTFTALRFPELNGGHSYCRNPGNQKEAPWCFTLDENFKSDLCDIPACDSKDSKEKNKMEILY
T1 sequence (Q01973 30-937): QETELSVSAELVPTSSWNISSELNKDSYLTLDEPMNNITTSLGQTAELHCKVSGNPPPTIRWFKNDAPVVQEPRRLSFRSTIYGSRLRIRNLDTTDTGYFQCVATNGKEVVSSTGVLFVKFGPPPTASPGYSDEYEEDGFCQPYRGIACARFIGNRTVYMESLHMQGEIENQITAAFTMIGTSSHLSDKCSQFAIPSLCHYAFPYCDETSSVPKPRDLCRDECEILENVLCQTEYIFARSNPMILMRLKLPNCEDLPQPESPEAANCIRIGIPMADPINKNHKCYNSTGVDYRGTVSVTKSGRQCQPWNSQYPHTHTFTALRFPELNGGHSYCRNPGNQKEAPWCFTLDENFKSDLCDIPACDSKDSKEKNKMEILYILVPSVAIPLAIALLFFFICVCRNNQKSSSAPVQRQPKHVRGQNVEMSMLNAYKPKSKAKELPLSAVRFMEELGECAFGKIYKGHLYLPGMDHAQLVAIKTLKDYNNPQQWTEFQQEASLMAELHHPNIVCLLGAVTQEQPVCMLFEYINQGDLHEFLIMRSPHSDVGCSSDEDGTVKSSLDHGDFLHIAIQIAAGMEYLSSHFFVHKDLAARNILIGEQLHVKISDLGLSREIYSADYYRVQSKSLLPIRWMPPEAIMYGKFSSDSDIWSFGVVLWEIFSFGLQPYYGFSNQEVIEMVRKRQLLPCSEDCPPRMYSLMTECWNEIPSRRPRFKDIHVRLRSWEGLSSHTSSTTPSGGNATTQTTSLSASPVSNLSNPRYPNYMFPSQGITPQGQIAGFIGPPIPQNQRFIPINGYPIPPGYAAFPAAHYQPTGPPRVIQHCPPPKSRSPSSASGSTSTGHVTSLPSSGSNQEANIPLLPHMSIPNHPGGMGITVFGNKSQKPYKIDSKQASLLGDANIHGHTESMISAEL

B1: anti-ROR1 antibody clone G6 (antibody, V domains shown)
VH: EVQLVESGGGVVQPGGSLRLSCAASGFTFDDYAMHWVRQAPGKGLEWVSLISGDGGSTYYADSVKGRFTISRDNAKNSLYLQMNSLRAEDTAVYYCARDNWNDVYYYYGMDVWGQGTTVTVSS
VL: DIQLTQSPSSLSASIGDTVTISCQASRDISDYLNWYQHKPGKAPKLLIYDASNLATGVPSRFSGSGSGTDFTLTIKSLQPEDVATYFCQQDDLLPLTFGGGTKVDIK
As to B1, the binding result in experiment [1] and in experiment [2] was “binds” throughout.

B2: anti-ROR1 antibody clone C3 (antibody, V domains shown)
VH: QVQLQESGPGLVKPSETLSLTCTVSGGSISSYYWSWIRQLPGKGLEWIGYMHYSGSTSYNPSLKGRLTISVDTSTNQFSLKLGSVTAADTAVYYCARYYYHDSSGYYSYFDYWGQGTLVTVSS
VL: EIVLTQSPGTLSLSPGERATLSCRASQSVSSYLAWYQQKAGQAPRLLIYDASNRASGIPARFSGSGSGTDFTLTISSLEPEDFAVYYCQQRSNWPPTFGGGTKVEIK
notes: also called anti-ROR1 (clone C3)
B2: the binding result in experiment [1] and in experiment [2] was “binds” in each case.

B3: anti-ROR1 antibody clone G3 (antibody, V domains shown)
VH: QVQLQQWGAGLLKPSETLSLTCAVYGGSFSGYYWSWIRQPPGKGLEWIGEINHSGSTSYNPSLKSRVTISVDTSKNQFSLKLSSVTAADTAVYYCARGHSSGWYRRYFDLWGRGTLVTVSS
VL: B2 VL with G9A, A40P, S56T, R61K
Consider B3, for which the binding result in experiment [1] and in experiment [2] was “binds” in each case.

Values taken from patent US20220356246A1 (NANJING IMMUNOPHAGE BIOTECH, published 2022).
